Molecular target: T1, HLA-A*03:01 (human)
T1 construct: MHC class I monomer first loaded with a UV-sensitive peptide that is cleaved by UV irradiation and exchanged for the test peptide; captured on streptavidin plates; also called peptide-receptive MHC molecules
Test: UV-ligand exchange, anti-b2m ELISA; peptide exchange yield grade (>10% +, >20% ++, >50% +++, >75% ++++)
From the text: Candidate peptides for T cell based therapies according to the present invention were further tested for their MHC binding capacity (affinity). The individual peptide-MHC complexes were produced by UV-ligand exchange, where a UV-sensitive peptide is cleaved upon UV-irradiation and exchanged with the peptide of interest as analyzed. Only peptide candidates that can effectively bind and stabilize the peptide-receptive MHC molecules prevent dissociation of the MHC complexes. To determine the yield of the exchange reaction, an ELISA was performed based on the detection of the light chain (β2m) of stabilized MHC complexes. The assay was performed as generally described in Rodenko et al. (Rodenko et al., 2006)
96 well MAXISorp plates (NUNC) were coated over night with 2 ug/ml streptavidin in PBS at room temperature, washed 4× and blocked forl h at 37° C. in 2% BSA containing blocking buffer. Refolded HLA-A*02:01/MLA-001 monomers served as standards, covering the range of 15-500 ng/ml. Peptide-MHC monomers of the UV-exchange reaction were diluted 100-fold in blocking buffer. Samples were incubated for 1 h at 37° C., washed four times, incubated with 2 ug/ml HRP conjugated anti-β2m for 1 h at 37° C., washed again and detected with TMB solution that is stopped with […]. Absorption was measured at 450 nm.

Binder | peptide exchange yield
RVKEIVINK | 50 to 75%
SLFPYYNNLY | 10 to 20%
IINESLLFY | 50 to 75%
TVYDSIWCNMK | > 75%
RLGAARGQLR | 20 to 50%
RLVELAGQSLLK | > 75%
VVTGNVPLK | 50 to 75%
RSYVPLAH | > 75%
KTGTFVLYKS | 50 to 75%
SLYDSEPRKK | > 75%
SVLSRMLVR | > 75%
TMWQIPQEFVK | > 75%
VLYRPQLEK | > 75%
RVLYRPQLEK | 50 to 75%
KLLEDMVEK | 20 to 50%
VLLLLSLLH | 20 to 50%
HAFPPGPNY | 10 to 20%
AIGTPLIGK | 50 to 75%
VVDDSQLPK | 20 to 50%
RCFSGPYLNK | > 75%
EVILTTKTPK | 20 to 50%
STLECILYK | > 75%
ILDSSLLK | 20 to 50%

Binder | peptide exchange yield
SGSTLECILYK | > 75%
SSFRPLLSK | > 75%
AVAAVLLSR | 50 to 75%
QIRAELMKK | > 75%
KLETGVVKK | > 75%
GVTITKTLK | 50 to 75%
HVLYPVPLESY | 50 to 75%
KGPMAGILAY | 20 to 50%
FSNNHPSTPK | 50 to 75%
ALFGNALVFY | > 75%
KGWNGQIFK | 50 to 75%
ITAPLMPLGK | > 75%
AVAQKLLSH | > 75%
HAFFPKTHR | > 75%
VLYELGIIGNNK | 50 to 75%
ALCGTQLFY | > 75%
HSAGIFSMY | 20 to 50%
VVFPFPVNKR | 50 to 75%
RLPLRVVKH | > 75%
SIFGLAPGK | > 75%
KTQFPQLK | 20 to 50%
ALNDRFAGY | 50 to 75%
LLYGNGPGYVLK | > 75%

Binder | peptide exchange yield
RLSAESKDLLK | 50 to 75%
KQALSLVRK | 50 to 75%
KLYPQCLQK | > 75%
TTYYPSPLNK | 50 to 75%
KCYEVGMMK | > 75%
KINQYIIKK | 50 to 75%
QLGYQAAVLK | 50 to 75%
VTADGALAMEK | 50 to 75%
GIFPKIMPK | > 75%
RLSPGPRAY | 50 to 75%
VVREILHAQTLK | 50 to 75%
GMYEYGSIEK | > 75%
AVCGGVLVH | > 75%
RTIEELQNK | 50 to 75%
KTWAHCMSY | > 75%
VTAVASLLK | > 75%
LLDAEPPILY | 10 to 20%
KVLSILSRLK | 50 to 75%
GLSTILLYH | > 75%
IIFVPEMNK | > 75%
RVCMTVDSLVNK | > 75%

Source: US20200000897A1 (published 2020)
